Laboratory results taken from article PMC6858323, “Multiple conformations facilitate PilT function in the type IV pilus” (Nature Communications, 2019).

B1: PilT^Pa two-hybrid fusion from pKT25::PilT^Pa (wild type) [Pseudomonas aeruginosa] / PilT^Pa two-hybrid fusion from pUT18C::pilT [Pseudomonas aeruginosa] (parent)
chain 1: MDITELLAFSAKQGASDLHLSAGLPPMIRVDGDVRRINLPPLEHKQVHALIYDIMNDKQRKDFEEFLETDFSFEVPGVARFRVNAFNQNRGAGAVFRTIPSKVLTMEELGMGEVFKRVSDVPRGLVLVTGPTGSGKSTTLAAMLDYLNNTKYHHILTIEDPIEFVHESKKCLVNQREVHRDTLGFSEALRSALREDPDIILVGEMRDLETIRLALTAAETGHLVFGTLHTTSAAKTIDRVVDVFPAEEKAMVRSMLSESLQSVISQTLIKKIGGGRVAAHEIMIGTPAIRNLIREDKVAQMYSAIQTGGSLGMQTLDMCLKGLVAKGLISRENAREKAKIPENF
chain 2: B1 chain 1
B2: PilT^Pa two-hybrid fusion from pKT25::PilT^Pa (wild type) [Pseudomonas aeruginosa] / PilC^Pa two-hybrid fusion from pUT18C::PilC^Pa [Pseudomonas aeruginosa] (parent)
chain 1: B1 chain 1
chain 2: MLVKAHLRKQGINPLKVRKKGISLLGAGKKVKPMDIALFTRQMATMMGAGVPLLQSFDIIGEGFDNPNMRKLVDEIKQEVSSGNSLANSLRKKPQYFDELYCNLVDAGEQSGALENLLDRVATYKEKTESLKAKIRKAMTYPIAVIIVALIVSAILLIKVVPQFQSVFQGFGAELPAFTQMVVNLSEFLQEWWLAVIVGVGAIGFTFKELHKRSKKFRDTLDRTILKLPIFGGIVYKSAVARYARTLSTTFAAGVPLVDALDSVSGATGNIVFKNAVSKIKQDVSTGMQLNFSMRTTSVFPNMAIQMTAIGEESGSLDEMLSKVASYYEEEVDNAVDNLTTLMEPMIMAVLGVLVGGLIVAMYLPIFQLGNVVG

Variants of: B1
Test: bacterial two-hybrid (BACTH), β-galactosidase activity
Conditions: with PilT^Pa two-hybrid fusion from pUT18C::pilT [Pseudomonas aeruginosa]; E. coli BTH101; n = 3; parent: 9.3e+03; read off a plot

chain 1 MDITELLAFSAKQGASDLHLSAGLPPMIRVDGDVRRINLPPLEHKQVHALIYDIMNDKQRKDFEEFLETDFSFEVPGVARFRVNAFNQNRGAGAVFRTIPSKVLTMEELGMGEVFKRVSDVPDGLVLVTGPTGSGKSTTLAAMLDYLNNTKYHHILTIEDPIEFVHESKKCLVNQREVHRDTLGFSEALRSALREDPDIILVGEMRDLETIRLALTAAETGHLVFGTLHTTSAAKTIDRVVDVFPAEEKAMVRSMLSESLQSVISQTLIKKIGGGRVAAHEIMIGTPAIRNLIREDKVAQMYSAIQTGGSLGMQTLDMCLKGLVAKGLISRENAREKAKIPENF [chain 1 R123D] and chain 1 MDITELLAFSAKQGASDLHLSAGLPPMIRVDGDVRRINLPPLEHKQVHALIYDIMNDKQRKDFEEFLETDFSFEVPGVARFRVNAFNQNRGAGAVFRTIPSKVLTMEELGMGEVFKRVSDVPRGLVLVTGPTGSGKSTTLAAMLDYLNNTKYHHILTIEDPIEFVHESKKCLVNQREVHRDTLGFSEALRSALREDPDIILVGEMRDLETIRLALTAAETGHLVFGTLHTTSAAKTIDRVVKVFPAEEKAMVRSMLSESLQSVISQTLIKKIGGGRVAAHEIMIGTPAIRNLIREDKVAQMYSAIQTGGSLGMQTLDMCLKGLVAKGLISRENAREKAKIPENF [chain 1 D242K] are the same in response: 8000 Miller units for the first, 8000 Miller units for the second.

First: chain 1 MDITELLAFSAKQGASDLHLSAGLPPMIRVDGDVRRINLPPLEHKQVHALIYDIMNDKQRKDFEEFLETDFSFEVPGVARFRVNAFNQNRGAGAVFRTIPSKVLTMEELGMGEVFKRVSDVPRGLVLVTGPTGSGKSTTLAAMLDYLNNTKYHHILTIEDPIEFVHESKKCLVNQREVHRDTLGFSEALRSALREDPDIILVGEMRDLETIRLALRAAETGHLVFGTLHTTSAAKTIDRVVDVFPAEEKAMVRSMLSESLQSVISQTLIKKIGGGRVAAHEIMIGTPAIRNLIREDKVAQMYSAIQTGGSLGMQTLDMCLKGLVAKGLISRENAREKAKIPENF [chain 1 T216R]
Second: chain 1 MDITELLAFSAKQGASDLHLSAGLPPMIRVDGDVRRINLPPLEHKQVHALIYDIMNDKQRKDFEEFLETDFSFEVPGVARFRVNAFNQNRGAGAVFRTIPSKVLTMEELGMGEVFKRVSDVPRGLVLVTGPTGSGKSTTLAAMLDYLNNTKYHHILTIEDPIEFVHESKKCLVNQREVHRDTLGFSEALRSALREDPDIILVGEMRDLETIRLALTAAETGHLVFGTLHTTSAAKTIDAVVDVFPAEEKAMVRSMLSESLQSVISQTLIKKIGGGRVAAHEIMIGTPAIRNLIREDKVAQMYSAIQTGGSLGMQTLDMCLKGLVAKGLISRENAREKAKIPENF [chain 1 R239A]
The response of the first is lower: 10000 Miller units for the first, 11000 Miller units for the second.

Compared with chain 1 MDITELLAFSAKQGASDLHLSAGLPPMIRVDGDVRRINLPPLEHKQVHALIYDIMNDKQRKDFEEFLETDFSFEVPGVARFRVNAFNQNRGAGAVFRTIPSKVLTMEELGMGEVFKRVSDVPRGLVLVTGPTGSGKSTTLAAMLDYLNNTKYHHILTIEDPIEFVHESKKCLVNQREVHRDTLGFSEALRSALREDPDIILVGEMRDLETIRLALTAAKTGHLVFGTLHTTSAAKTIDRVVDVFPAEEKAMVRSMLSESLQSVISQTLIKKIGGGRVAAHEIMIGTPAIRNLIREDKVAQMYSAIQTGGSLGMQTLDMCLKGLVAKGLISRENAREKAKIPENF [chain 1 E219K], chain 1 MDITELLAFSAKQGASDLHLSAGLPPMIRVDGDVRRINLPPLEHKQVHALIYDIMNDKQRKDFEEFLETDFSFEVPGVARFRVNAFNQNRGAGAVFRTIPSKVLTMEELGMGEVFKRVSDVPRGLVLVTGPTGSGKSTTLAAMLDYLNNTKYHHILTIEDPIEFVHESKKCLVNQREVHRDTLGFSEALRSALREDPDIILVGEMRDLETIRLALTAAETGHLVFGTLATTSAAKTIDRVVDVFPAEEKAMVRSMLSESLQSVISQTLIKKIGGGRVAAHEIMIGTPAIRNLIREDKVAQMYSAIQTGGSLGMQTLDMCLKGLVAKGLISRENAREKAKIPENF [chain 1 H229A] is higher in response: 8600 Miller units for the first, 11000 Miller units for the second.

Going from chain 1 MDITELLAFSAKQGASDLHLSAGLPPMIRVDGDVRRINLPPLEHKQVHALIYDIMNDKQRKDFEEFLETDFSFEVPGVARFRVNAFNQNRGAGAVFRTIPSKVLTMEELGMGEVFKRVSDVPRGLVLVTGPTGSGKSTTLAAMLDYLNNTKYHHILTIEDPIEFVHESKKCLVNQREVHRDTLGFSEALRSALREDPDIILVGEMRDLETIRLALTAAETGHLVFGTLHTTSAAKTIDRVVDVFPAEEKAMVRSMLSESLQSVISQTLIKKIGGGRVAAHEIMIGTPAIRNLIEEDKVAQMYSAIQTGGSLGMQTLDMCLKGLVAKGLISRENAREKAKIPENF [chain 1 R294E] to chain 1 MDITELLAFSAKQGASDLHLSAGLPPMIRVDGDVRRINLPPLEHKQVHALIYDIMNDKQRKDFEEFLETDFSFEVPGVARFRVNAFNQNRGAGAVFRTIPSKVLTMEELGMGEVFKRVSDVPRGLVLVTGPTGSGKSTTLAAMLDYLNNTKYHHILTIEDPIEFVHESKKCLVNQREVHRDTLGFSEALRSALREDPDIILVGEMRDLETIRLALTAAETGHLVFGTLHTTSAAKTIDRVVDVFPAEEKAMVRSMLSASLQSVISQTLIKKIGGGRVAAHEIMIGTPAIRNLIREDKVAQMYSAIQTGGSLGMQTLDMCLKGLVAKGLISRENAREKAKIPENF [chain 1 E258A], the response rises from 8600 Miller units to 9300 Miller units.

Compared with chain 1 MDITELLAFSAKQGASDLHLSAGLPPMIRVKGDVRRINLPPLEHKQVHALIYDIMNDKQRKDFEEFLETDFSFEVPGVARFRVNAFNQNRGAGAVFRTIPSKVLTMEELGMGEVFKRVSDVPRGLVLVTGPTGSGKSTTLAAMLDYLNNTKYHHILTIEDPIEFVHESKKCLVNQREVHRDTLGFSEALRSALREDPDIILVGEMRDLETIRLALTAAETGHLVFGTLHTTSAAKTIDRVVDVFPAEEKAMVRSMLSESLQSVISQTLIKKIGGGRVAAHEIMIGTPAIRNLIREDKVAQMYSAIQTGGSLGMQTLDMCLKGLVAKGLISRENAREKAKIPENF [chain 1 D31K], chain 1 MDITELLAFSAKQGASDLHLSAGLPPMIRVDGDVRRINLPPLEHKQVHALIYDIMNDKQRKDFEEFLETDFSFEVPGVARFRVNAFNQNRGAGAVFRTIPSKVLTMEELGMGEVFKRVSDVPRGLVLVTGPTGSGKSTTLAAMLDYLNNTKYHHILTIEDPIEFVHESKKCLVNQREVHRDTLGFSEALRSALREDPDIILVGAMRDLETIRLALTAAETGHLVFGTLHTTSAAKTIDRVVDVFPAEEKAMVRSMLSESLQSVISQTLIKKIGGGRVAAHEIMIGTPAIRNLIREDKVAQMYSAIQTGGSLGMQTLDMCLKGLVAKGLISRENAREKAKIPENF [chain 1 E204A] is higher in response: 7000 Miller units for the first, 8000 Miller units for the second.

chain 1 MDITELLAFSAKQGASDLHLSAGLPPMIRVDGDVRRINLPPLEHKQVHALIYDIMNDQQRKDFEEFLETDFSFEVPGVARFRVNAFNQNRGAGAVFRTIPSKVLTMEELGMGEVFKRVSDVPRGLVLVTGPTGSGKSTTLAAMLDYLNNTKYHHILTIEDPIEFVHESKKCLVNQREVHRDTLGFSEALRSALREDPDIILVGEMRDLETIRLALTAAETGHLVFGTLHTTSAAKTIDRVVDVFPAEEKAMVRSMLSESLQSVISQTLIKKIGGGRVAAHEIMIGTPAIRNLIREDKVAQMYSAIQTGGSLGMQTLDMCLKGLVAKGLISRENAREKAKIPENF [chain 1 K58Q] and chain 1 MDITELLAFSAKQGASDLHLSAGLPPMIRVDGDVRRINLPPLEHKQVHALIYDIMNDAQRKDFEEFLETDFSFEVPGVARFRVNAFNQNRGAGAVFRTIPSKVLTMEELGMGEVFKRVSDVPRGLVLVTGPTGSGKSTTLAAMLDYLNNTKYHHILTIEDPIEFVHESKKCLVNQREVHRDTLGFSEALRSALREDPDIILVGEMRDLETIRLALTAAETGHLVFGTLHTTSAAKTIDRVVDVFPAEEKAMVRSMLSESLQSVISQTLIKKIGGGRVAAHEIMIGTPAIRNLIREDKVAQMYSAIQTGGSLGMQTLDMCLKGLVAKGLISRENAREKAKIPENF [chain 1 K58A] are the same in response: 10000 Miller units for the first, 10000 Miller units for the second.

For chain 1 MDITELLAFSAKQGASDLHLSAGLPPMIRVDGDVRRINLPPLEHKQVHALIYDIMNDRQRKDFEEFLETDFSFEVPGVARFRVNAFNQNRGAGAVFRTIPSKVLTMEELGMGEVFKRVSDVPRGLVLVTGPTGSGKSTTLAAMLDYLNNTKYHHILTIEDPIEFVHESKKCLVNQREVHRDTLGFSEALRSALREDPDIILVGEMRDLETIRLALTAAETGHLVFGTLHTTSAAKTIDRVVDVFPAEEKAMVRSMLSESLQSVISQTLIKKIGGGRVAAHEIMIGTPAIRNLIREDKVAQMYSAIQTGGSLGMQTLDMCLKGLVAKGLISRENAREKAKIPENF [chain 1 K58R], the response was 11000 Miller units.

Variants of: B2
Test: as above
Conditions: with PilC^Pa two-hybrid fusion from pUT18C::PilC^Pa [Pseudomonas aeruginosa]; E. coli BTH101; n = 3; parent: 650; read off a plot

First: chain 1 MDITELLAFSAKQGASDLHLSAGLPPMIRVDGDVRRINLPPLEHKQVHALIYDIMNDKQRKDFEEFLETDFSFEVPGVARFRVNAFNQNRGAGAVFRTIPSKVLTMEELGMGEVFKRVSDVPRGLVLVTGPTGSGKSTTLAAMLDYLNNTKYHHILTIEDPIEFVHESKKCLVNQREVHRDTLGFSEALRSALREDPDIILVGEMRDLETIRLALTAAETGHLVFGTLATTSAAKTIDRVVDVFPAEEKAMVRSMLSESLQSVISQTLIKKIGGGRVAAHEIMIGTPAIRNLIREDKVAQMYSAIQTGGSLGMQTLDMCLKGLVAKGLISRENAREKAKIPENF [chain 1 H229A]
Second: chain 1 MDITELLAFSAKQGASDLHLSAGLPPMIRVDGDVRRINLPPLEHKQVHALIYDIMNDKQRKDFEEFLETDFSFEVPGVARFRVNAFNQNRGAGAVFRTIPSKVLTMEELGMGEVFKRVSDVPRGLVLVTGPTGSGKSTTLAAMLDYLNNTKYHHILTIEDPIEFVHESKKCLVNQREVHRDTLGFSEALRSALREDPDIILVGAMRDLETIRLALTAAETGHLVFGTLHTTSAAKTIDRVVDVFPAEEKAMVRSMLSESLQSVISQTLIKKIGGGRVAAHEIMIGTPAIRNLIREDKVAQMYSAIQTGGSLGMQTLDMCLKGLVAKGLISRENAREKAKIPENF [chain 1 E204A]
The response of the first is higher: 650 Miller units for the first, 460 Miller units for the second.
